From paper PMC7042329, “AMPK-dependent activation of the Cyclin Y/CDK16 complex controls autophagy” (Nature Communications, 2020)

Biological target: T1, Cyclin Y-Flag (human, UniProt Q8ND76-1 1-341)
T1 construct: Cyclin Y, human, isoform 1 (CCNYiso1 cDNA clone in pcDNA3-FLAG); In cells partly phosphorylated at S326 (more after AICAR/A769662) and at S336; also called Cyclin Y-Flag-wt; wild-type Cyclin Y; source: HeLa or U2OS, transfected, in lysate
Assay: co-IP; HeLa cells transfected with Cyclin Y-Flag, with or without GFP-tagged CDK; with or without 0.5 mM AICAR/50 µM A769662 for 1 h; lysate in Frackelton buffer, anti-FLAG M2 beads 2 h at 4 °C, three washes, immunoblot
Settings: partners not purified

T1 sequence (Q8ND76 whole entry, canonical isoform): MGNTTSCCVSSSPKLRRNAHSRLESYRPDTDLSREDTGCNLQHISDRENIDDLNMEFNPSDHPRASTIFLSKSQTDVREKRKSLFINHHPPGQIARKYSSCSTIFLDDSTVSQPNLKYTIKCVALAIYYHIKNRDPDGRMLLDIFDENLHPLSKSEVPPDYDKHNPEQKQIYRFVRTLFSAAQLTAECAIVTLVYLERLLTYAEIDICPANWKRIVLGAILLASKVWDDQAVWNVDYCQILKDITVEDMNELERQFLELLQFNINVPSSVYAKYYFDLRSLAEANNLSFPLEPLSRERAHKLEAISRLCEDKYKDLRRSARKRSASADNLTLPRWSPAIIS

B1: GFP-CDK16 (enzyme)
chain: not shown
notes: Cyclin-dependent kinase 16 (CDK16), human, isoform 1; also called GFP-CDK16-wt; PCTAIRE1; source: HeLa, transfected, in lysate
  fold change of co-immunoprecipitated CDK16 with AICAR/A769662 against untreated: 2 fold
